We go through one substance from article doi:10.1101/2024.11.01.621505.

This assay deals with CCR9 ΔCT (human) (UniProt P51686).
Sequence of UniProt P51686 (P51686 1-334, stated change not applied): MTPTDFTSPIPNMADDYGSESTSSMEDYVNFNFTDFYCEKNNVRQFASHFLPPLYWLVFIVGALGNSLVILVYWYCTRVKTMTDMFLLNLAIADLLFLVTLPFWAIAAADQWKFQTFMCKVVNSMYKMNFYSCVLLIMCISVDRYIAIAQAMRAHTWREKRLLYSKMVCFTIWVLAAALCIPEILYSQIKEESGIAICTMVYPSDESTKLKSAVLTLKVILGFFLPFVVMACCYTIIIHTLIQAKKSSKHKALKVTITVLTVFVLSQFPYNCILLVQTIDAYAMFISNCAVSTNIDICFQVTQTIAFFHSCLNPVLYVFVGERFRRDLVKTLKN

The substance “G⍺i-Nluc (from UniProt P63096 1-354) (natural protein)” yielded a Gi activation: area over the G⍺i-Gβγ dissociation curve (AOC), against CCR9 WT of 6 fold.
